B1: Catenin beta-1 (Mus musculus), Q02248 (parent)
chain: MATQADLMELDMAMEPDRKAAVSHWQQQSYLDSGIHSGATTTAPSLSGKGNPEEEDVDTSQVLYEWEQGFSQSFTQEQVADIDGQYAMTRAQRVRAAMFPETLDEGMQIPSTQFDAAHPTNVQRLAEPSQMLKHAVVNLINYQDDAELATRAIPELTKLLNDEDQVVVNKAAVMVHQLSKKEASRHAIMRSPQMVSAIVRTMQNTNDVETARCTAGTLHNLSHHREGLLAIFKSGGIPALVKMLGSPVDSVLFYAITTLHNLLLHQEGAKMAVRLAGGLQKMVALLNKTNVKFLAITTDCLQILAYGNQESKLIILASGGPQALVNIMRTYTYEKLLWTTSRVLKVLSVCSSNKPAIVEAGGMQALGLHLTDPSQRLVQNCLWTLRNLSDAATKQEGMEGLLGTLVQLLGSDDINVVTCAAGILSNLTCNNYKNKMMVCQVGGIEALVRTVLRAGDREDITEPAICALRHLTSRHQEAEMAQNAVRLHYGLPVVVKLLHPPSHWPLIKATVGLIRNLALCPANHAPLREQGAIPRLVQLLVRAHQDTQRRTSMGGTQQQFVEGVRMEEIVEGCTGALHILARDVHNRIVIRGLNTIPLFVQLLYSPIENIQRVAAGVLCELAQDKEAAEAIEAEGATAPLTELLHSRNEGVATYAAAVLFRMSEDKPQDYKKRLSVELTSSLFRTEPMAWNETADLGLDIGAQGEALGYRQDDPSYRSFHSGGYGQDALGMDPMMEHEMGGHHPGADYPVDGLPDLGHAQDLMDGLPPGDSNQLAWFDTDL
partner: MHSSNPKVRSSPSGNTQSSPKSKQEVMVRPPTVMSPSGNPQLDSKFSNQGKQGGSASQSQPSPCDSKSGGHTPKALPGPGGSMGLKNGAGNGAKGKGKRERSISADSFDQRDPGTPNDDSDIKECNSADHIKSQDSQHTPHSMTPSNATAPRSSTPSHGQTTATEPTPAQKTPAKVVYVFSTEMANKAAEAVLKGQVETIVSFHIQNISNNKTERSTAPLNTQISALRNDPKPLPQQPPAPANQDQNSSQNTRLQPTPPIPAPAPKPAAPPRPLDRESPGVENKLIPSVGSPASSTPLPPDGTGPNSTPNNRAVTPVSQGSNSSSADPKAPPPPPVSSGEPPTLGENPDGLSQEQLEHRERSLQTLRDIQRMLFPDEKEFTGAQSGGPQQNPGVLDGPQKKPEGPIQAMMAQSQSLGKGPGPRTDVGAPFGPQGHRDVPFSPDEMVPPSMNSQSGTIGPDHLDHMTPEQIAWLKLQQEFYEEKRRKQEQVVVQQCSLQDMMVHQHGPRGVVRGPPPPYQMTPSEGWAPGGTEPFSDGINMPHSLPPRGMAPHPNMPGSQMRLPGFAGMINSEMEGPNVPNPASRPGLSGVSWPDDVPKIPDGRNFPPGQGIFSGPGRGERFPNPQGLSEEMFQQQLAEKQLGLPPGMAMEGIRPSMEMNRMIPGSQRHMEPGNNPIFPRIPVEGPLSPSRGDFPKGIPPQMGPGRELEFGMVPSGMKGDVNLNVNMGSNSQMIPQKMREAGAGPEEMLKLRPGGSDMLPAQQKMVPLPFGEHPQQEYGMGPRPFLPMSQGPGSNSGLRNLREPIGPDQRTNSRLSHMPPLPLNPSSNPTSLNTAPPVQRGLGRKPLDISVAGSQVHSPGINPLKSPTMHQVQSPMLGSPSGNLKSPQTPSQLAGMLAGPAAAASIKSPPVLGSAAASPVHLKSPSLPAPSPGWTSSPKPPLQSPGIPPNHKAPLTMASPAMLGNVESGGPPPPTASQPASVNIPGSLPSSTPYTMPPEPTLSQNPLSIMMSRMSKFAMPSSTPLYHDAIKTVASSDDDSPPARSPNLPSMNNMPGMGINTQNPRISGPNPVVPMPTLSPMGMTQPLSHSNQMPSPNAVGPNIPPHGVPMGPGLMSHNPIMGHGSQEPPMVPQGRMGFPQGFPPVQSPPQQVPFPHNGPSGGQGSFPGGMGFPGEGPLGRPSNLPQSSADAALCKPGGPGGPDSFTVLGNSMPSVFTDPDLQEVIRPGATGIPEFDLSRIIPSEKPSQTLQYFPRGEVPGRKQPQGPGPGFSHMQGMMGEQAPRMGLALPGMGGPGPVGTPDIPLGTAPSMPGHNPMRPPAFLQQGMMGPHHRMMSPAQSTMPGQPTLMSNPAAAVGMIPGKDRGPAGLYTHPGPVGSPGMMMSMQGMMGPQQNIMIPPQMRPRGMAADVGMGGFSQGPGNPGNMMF
B2: Armadillo segment polarity protein (Drosophila melanogaster (Fruit fly)), P18824 (parent)
chain: MSYMPAQNRTMSHNNQYNPPDLPPMVSAKEQTLMWQQNSYLGDSGIHSGAVTQVPSLSGKEDEEMEGDPLMFDLDTGFPQNFTQDQVDDMNQQLSQTRSQRVRAAMFPETLEEGIEIPSTQFDPQQPTAVQRLSEPSQMLKHAVVNLINYQDDAELATRAIPELIKLLNDEDQVVVSQAAMMVHQLSKKEASRHAIMNSPQMVAALVRAISNSNDLESTKAAVGTLHNLSHHRQGLLAIFKSGGIPALVKLLSSPVESVLFYAITTLHNLLLHQDGSKMAVRLAGGLQKMVTLLQRNNVKFLAIVTDCLQILAYGNQESKLIILASGGPNELVRIMRSYDYEKLLWTTSRVLKVLSVCSSNKPAIVDAGGMQALAMHLGNMSPRLVQNCLWTLRNLSDAATKVEGLEALLQSLVQVLGSTDVNVVTCAAGILSNLTCNNQRNKATVCQVGGVDALVRTIINAGDREEITEPAVCALRHLTSRHVDSELAQNAVRLNYGLSVIVKLLHPPSRWPLIKAVIGLIRNLALCPANHAPLREHGAIHHLVRLLMRAFQDTERQRSSIATTGSQQPSAYADGVRMEEIVEGTVGALHILARESHNRALIRQQSVIPIFVRLLFNEIENIQRVAAGVLCELAADKEGAEIIEQEGATGPLTDLLHSRNEGVATYAAAVLFRMSEDKPQDYKKRLSIELTNSLLREDNNIWANADLGMGPDLQDMLGPEEAYEGLYGQGPPSVHSSHGGRAFHQQGYDTLPIDSMQGLEISSPVGGGGAGGAPGNGGAVGGASGGGGNIGAIPPSGAPTSPYSMDMDVGEIDAGALNFDLDAMPTPPNDNNNLAAWYDTDC
partner: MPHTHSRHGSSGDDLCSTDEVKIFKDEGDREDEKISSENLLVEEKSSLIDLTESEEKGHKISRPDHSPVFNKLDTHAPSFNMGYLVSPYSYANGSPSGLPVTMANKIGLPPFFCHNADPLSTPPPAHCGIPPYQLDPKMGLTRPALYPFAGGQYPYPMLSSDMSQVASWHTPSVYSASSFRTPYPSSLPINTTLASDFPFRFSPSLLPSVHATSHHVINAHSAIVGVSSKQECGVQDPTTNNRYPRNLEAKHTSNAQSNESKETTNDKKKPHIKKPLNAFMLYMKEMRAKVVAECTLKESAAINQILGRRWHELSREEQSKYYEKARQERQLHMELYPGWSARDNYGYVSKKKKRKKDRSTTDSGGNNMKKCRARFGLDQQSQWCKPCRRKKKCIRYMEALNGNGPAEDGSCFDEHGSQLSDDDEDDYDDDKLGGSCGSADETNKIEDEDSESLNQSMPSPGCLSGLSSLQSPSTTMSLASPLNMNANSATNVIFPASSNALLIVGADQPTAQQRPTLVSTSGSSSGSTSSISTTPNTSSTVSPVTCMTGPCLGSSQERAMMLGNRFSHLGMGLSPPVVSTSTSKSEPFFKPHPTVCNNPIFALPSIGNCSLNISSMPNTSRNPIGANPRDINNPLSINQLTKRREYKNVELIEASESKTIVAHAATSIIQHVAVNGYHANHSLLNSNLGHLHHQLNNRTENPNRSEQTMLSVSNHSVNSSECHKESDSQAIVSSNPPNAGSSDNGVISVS

Variants of: B1
Conditions: with bcl9_human BCL9, O00512

Variant | effect of a mutation on the interaction
D164A | disrupting interaction

Variants of: B2
Conditions: with pang1_drome pan

Variant | effect of a mutation on the interaction
D172A | disrupting interaction
